{"source": "paper PMC2903388", "key": {"[1]": {"biological_target": "Mouse tail tendon type I collagen heterotrimer α1(I)2α2(I) (mouse) (UniProt P11087)", "sequence (P11087 152-1207, chain 1 of 2)": "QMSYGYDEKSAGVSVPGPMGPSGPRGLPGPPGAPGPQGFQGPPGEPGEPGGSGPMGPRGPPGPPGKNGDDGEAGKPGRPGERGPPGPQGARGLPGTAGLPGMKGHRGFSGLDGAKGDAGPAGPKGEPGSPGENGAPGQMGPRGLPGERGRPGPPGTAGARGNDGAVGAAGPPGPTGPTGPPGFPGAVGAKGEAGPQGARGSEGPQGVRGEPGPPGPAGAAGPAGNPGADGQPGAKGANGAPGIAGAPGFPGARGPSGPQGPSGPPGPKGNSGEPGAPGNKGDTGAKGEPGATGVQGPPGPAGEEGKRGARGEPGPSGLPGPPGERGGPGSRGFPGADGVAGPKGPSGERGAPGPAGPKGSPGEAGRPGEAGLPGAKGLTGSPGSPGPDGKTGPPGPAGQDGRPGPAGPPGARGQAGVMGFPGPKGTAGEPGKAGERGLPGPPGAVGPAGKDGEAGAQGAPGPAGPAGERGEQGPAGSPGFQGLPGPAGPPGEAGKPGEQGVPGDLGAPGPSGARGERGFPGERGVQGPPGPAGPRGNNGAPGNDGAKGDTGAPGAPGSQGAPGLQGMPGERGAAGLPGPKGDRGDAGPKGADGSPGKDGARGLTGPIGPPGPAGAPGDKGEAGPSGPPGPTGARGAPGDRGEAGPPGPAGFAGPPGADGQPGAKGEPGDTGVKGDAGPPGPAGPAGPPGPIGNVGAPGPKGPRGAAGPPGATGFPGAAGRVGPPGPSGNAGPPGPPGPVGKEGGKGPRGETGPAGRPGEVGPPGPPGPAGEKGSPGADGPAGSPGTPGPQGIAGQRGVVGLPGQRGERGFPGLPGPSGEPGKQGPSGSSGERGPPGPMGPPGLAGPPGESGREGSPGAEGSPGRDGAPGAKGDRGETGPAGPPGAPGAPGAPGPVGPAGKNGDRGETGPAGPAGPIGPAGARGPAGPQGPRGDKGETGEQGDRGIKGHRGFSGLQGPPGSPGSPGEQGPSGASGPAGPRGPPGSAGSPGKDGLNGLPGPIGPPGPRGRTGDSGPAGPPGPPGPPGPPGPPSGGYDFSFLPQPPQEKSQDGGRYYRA", "sequence (Q01149 86-1125, chain 2 of 2, further chain)": "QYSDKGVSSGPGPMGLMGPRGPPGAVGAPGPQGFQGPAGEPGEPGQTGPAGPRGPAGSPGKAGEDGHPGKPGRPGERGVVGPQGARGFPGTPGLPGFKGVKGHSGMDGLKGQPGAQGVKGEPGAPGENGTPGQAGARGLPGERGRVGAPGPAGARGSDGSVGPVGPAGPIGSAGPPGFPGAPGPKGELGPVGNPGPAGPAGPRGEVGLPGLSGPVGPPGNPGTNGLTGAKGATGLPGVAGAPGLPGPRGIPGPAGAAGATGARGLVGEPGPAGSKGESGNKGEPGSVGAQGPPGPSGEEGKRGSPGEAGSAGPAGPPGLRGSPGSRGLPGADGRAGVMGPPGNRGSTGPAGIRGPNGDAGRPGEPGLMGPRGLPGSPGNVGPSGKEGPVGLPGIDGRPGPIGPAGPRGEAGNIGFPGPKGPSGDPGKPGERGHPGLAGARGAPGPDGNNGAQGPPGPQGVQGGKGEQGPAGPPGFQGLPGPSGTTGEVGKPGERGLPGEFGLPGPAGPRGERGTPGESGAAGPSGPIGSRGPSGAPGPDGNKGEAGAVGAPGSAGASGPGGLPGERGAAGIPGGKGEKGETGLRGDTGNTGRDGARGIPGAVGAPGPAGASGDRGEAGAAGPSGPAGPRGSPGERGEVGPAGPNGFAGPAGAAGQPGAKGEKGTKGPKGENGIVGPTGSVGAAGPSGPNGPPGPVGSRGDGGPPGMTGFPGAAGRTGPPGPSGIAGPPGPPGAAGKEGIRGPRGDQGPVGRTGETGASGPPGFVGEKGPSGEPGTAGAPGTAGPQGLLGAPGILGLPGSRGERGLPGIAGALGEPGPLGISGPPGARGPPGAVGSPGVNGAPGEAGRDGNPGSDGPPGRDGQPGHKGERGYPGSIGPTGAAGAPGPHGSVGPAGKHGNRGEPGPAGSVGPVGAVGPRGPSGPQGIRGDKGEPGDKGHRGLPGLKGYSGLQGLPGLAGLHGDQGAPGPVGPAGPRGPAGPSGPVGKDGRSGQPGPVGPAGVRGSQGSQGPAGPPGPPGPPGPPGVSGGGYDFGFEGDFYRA", "assay": "equilibrium microdialysis"}, "[2]": {"biological_target": "Mouse tail tendon type I collagen homotrimer α1(I)3 (mouse) (UniProt P11087)", "sequence (P11087 152-1207)": "as the sequence (P11087 152-1207, chain 1 of 2) above", "assay": "equilibrium microdialysis"}}}
{"substance": "MMP-1(E200A), activated recombinant human fibroblast collagenase with Glu-200 substituted with Ala (enzyme)", "values": [{"measurement": "KD, high-affinity site", "setting": "[1]", "result": 1.3, "unit": "µM"}, {"measurement": "KD, low-affinity sites", "setting": "[1]", "result": "> 50", "unit": "µM"}, {"measurement": "N, high-affinity site (MMP-1(E200A) per collagen triple helix)", "setting": "[1]", "result": 1}, {"measurement": "KD, high-affinity site", "setting": "[2]", "result": 1.3, "unit": "µM"}, {"measurement": "KD, low-affinity sites", "setting": "[2]", "result": "> 50", "unit": "µM"}, {"measurement": "N, high-affinity site (MMP-1(E200A) per collagen triple helix)", "setting": "[2]", "result": 1}]}
